According to patent US20150376252A1 (VAN ANDEL RESEARCH INSTITUTE, published 2015):
Where two headings read alike, the source gives them in different places.

B4: Fz4-YFP-N (full-length human Fz4 with YFP residues 1-158 at the C-terminus) (receptor, UniProt Q9ULV1 37-537, looked up)
chain: FGDEEERRCDPIRISMCQNLGYNVTKMPNLVGHELQTDAELQLTTFTPLIQYGCSSQLQFFLCSVYVPMCTEKINIPIGPCGGMCLSVKRRCEPVLKEFGFAWPESLNCSKFPPQNDHNHMCMEGPGDEEVPLPHKTPIQPGEECHSVGTNSDQYIWVKRSLNCVLKCGYDAGLYSRSAKEFTDIWMAVWASLCFISTAFTVLTFLIDSSRFSYPERPIIFLSMCYNIYSIAYIVRLTVGRERISCDFEEAAEPVLIQEGLKNTGCAIIFLLMYFFGMASSIWWVILTLTWFLAAGLKWGHEAIEMHSSYFHIAAWAIPAVKTIVILIMRLVDADELTGLCYVGNQNLDALTGFVVAPLFTYLVIGTLFIAAGLVALFKIRSNLQKDGTKTDKLERLMVKIGVFSVLYTVPATCVIACYFYEISNWALFRYSADDSNMAVEMLKIFMSLLVGITSGMWIWSAKTLHTWQKCSNRLVNSGKVKREKRGNGWVKPGKGSETVV
notes: whole, on cells; also called YFP-N-tagged Fz4; not shown: YFP-N, residues 1-158 of YFP

Columns and labels:
[1] = target: biotinylated MBP-Norrin (human); test: AlphaScreen saturation binding curve; binding avidity of dimer to dimer (FIG. 1E)
[2] = target: T1, MBP-Norrin (maltose binding protein fused to the N-terminus of human Norrin residues 25-133, wild-type) (human); test: biolayer interferometry; binding avidity of dimer to dimer (FIG. 8A)
[3] = target: T1, MBP-Norrin (maltose binding protein …); test: three-step biolayer interferometry: Lrp6 BP3-4 on MBP-Norrin pre-bound to Fz4-FcH6 sensors
[4] = target: biotinylated MBP-Norrin (human); test: AlphaScreen luminescence proximity assay
[5] = target: T2, Fz4-YFP (full-length human Fz4 with yellow fluorescent protein at the C-terminus) (human, UniProt Q9ULV1 37-537); test: static BRET in transfected COS-1 cells
T2 construct: whole, on cells; also called YFP-tagged Fz4; not shown: YFP
T2 sequence (looked up): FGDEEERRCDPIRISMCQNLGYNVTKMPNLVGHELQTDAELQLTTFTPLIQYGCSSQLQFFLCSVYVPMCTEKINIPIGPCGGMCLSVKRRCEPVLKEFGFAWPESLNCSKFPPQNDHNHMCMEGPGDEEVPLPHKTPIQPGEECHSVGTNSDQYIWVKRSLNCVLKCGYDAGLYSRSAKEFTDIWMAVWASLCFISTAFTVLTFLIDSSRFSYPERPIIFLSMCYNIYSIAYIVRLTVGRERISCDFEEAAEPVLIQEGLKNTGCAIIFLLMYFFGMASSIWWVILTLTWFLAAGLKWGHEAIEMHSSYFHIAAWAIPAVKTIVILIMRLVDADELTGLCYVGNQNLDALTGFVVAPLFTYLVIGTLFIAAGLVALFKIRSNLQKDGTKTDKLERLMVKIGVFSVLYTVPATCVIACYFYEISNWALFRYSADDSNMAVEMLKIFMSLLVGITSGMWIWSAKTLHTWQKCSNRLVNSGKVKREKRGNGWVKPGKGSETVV

[6] = target: T3, Tspan12-YFP (human Tspan12 with YFP at the C-terminus) (human, UniProt O95859 1-305); test: static BRET in transfected COS-1 cells
T3 construct: whole, on cells; also called YFP-tagged Tspan12; not shown: YFP
T3 sequence (looked up): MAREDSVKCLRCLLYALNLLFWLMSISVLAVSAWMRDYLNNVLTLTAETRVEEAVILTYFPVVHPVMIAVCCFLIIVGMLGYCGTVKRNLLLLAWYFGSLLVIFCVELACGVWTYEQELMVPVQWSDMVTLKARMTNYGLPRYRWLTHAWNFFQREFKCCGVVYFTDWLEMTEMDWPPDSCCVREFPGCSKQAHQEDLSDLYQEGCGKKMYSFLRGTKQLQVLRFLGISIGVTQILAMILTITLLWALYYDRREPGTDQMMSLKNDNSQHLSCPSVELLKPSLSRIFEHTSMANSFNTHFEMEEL

[7] = target: T4, Fz4-YFP-C (full-length human Fz4 with YFP residues 159-239 at the C-terminus) (human, UniProt Q9ULV1 37-537); test: split-YFP complementation: fluorescence microscopy, emission spectrum, anisotropy
T4 construct: whole, on cells; also called YFP-C-tagged Fz4; not shown: YFP-C, residues 159-239 of YFP
T4 sequence (looked up): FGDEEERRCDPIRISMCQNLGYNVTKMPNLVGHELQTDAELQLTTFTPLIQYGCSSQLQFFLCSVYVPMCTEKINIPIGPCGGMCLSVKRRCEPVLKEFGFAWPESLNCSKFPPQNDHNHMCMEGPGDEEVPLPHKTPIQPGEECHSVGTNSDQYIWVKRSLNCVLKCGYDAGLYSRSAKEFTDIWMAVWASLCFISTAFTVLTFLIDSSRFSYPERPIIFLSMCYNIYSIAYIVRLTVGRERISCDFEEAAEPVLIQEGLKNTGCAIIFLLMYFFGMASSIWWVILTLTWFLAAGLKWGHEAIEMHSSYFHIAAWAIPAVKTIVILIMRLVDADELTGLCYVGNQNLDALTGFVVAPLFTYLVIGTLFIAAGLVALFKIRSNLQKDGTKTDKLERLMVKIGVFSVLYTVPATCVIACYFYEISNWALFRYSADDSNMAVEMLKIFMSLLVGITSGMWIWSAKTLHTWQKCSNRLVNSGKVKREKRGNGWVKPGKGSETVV

[8] = target: T4, Fz4-YFP-C (full-length human Fz4 with …); test: split-YFP BRET assay (FIG. 6D)
[9] = target: B4; test: split-YFP BRET assay (FIG. 6D)
[10] = target: T2, Fz4-YFP (full-length human Fz4 with …); test: static BRET in transfected COS-1 cells; remark: listed apart in the source
[11] = target: T1, MBP-Norrin (maltose binding protein …); test: calculated from the homologous competition assay (FIG. 4B, 4C); Kd derived from the same homologous competition
[12] = target: T5, MBP-Norrin K54E/R109E (human); test: AlphaScreen competition: unlabeled mutant MBP-Norrin against b-DKK1 peptide on H8-Lrp6 BP1-2
T5 construct: MBP tagged mutant purified like the wild-type; also called K54E/R109E double mutant

[13] = target: T6, Fz4-Rlu (full-length human Fz4 with Renilla luciferase at the C-terminus) (human, UniProt Q9ULV1 37-537); test: saturation BRET in transfected COS-1 cells
T6 construct: whole, on cells; also called Rlu-tagged Fz4; not shown: Renilla luciferase (Rlu)
T6 sequence (looked up): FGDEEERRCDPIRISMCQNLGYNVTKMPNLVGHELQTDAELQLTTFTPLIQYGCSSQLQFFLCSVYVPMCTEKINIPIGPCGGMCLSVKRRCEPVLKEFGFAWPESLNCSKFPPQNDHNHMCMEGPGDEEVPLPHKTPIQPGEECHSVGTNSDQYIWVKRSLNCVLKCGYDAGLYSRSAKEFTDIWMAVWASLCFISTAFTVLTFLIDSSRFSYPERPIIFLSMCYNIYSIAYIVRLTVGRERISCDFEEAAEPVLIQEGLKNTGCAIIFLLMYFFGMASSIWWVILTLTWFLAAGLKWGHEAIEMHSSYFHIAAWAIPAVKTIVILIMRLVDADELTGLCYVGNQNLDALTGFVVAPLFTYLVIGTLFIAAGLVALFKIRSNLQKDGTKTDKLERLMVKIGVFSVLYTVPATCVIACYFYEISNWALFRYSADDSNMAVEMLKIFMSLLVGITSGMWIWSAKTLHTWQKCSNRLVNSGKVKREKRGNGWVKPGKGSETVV

[14] = target: biotinylated MBP-Norrin (human); test: AlphaScreen luminescence proximity assay; remark: listed apart in the source
[15] = target: T1, MBP-Norrin (maltose binding protein …); test: biolayer interferometry, Fz8-FcH6 on the sensor, MBP-Norrin in solution

B1: Fz4-FcH6 (human Frizzled 4 CRD, residues 40-164, fused to Fc and His6 tags) (Fc fusion)
chain: EEERRCDPIRISMCQNLGYNVTKMPNLVGHELQTDAELQLTTFTPLIQYGCSSQLQFFLCSVYVPMCTEKINIPIGPCGGMCLSVKRRCEPVLKEFGFAWPESLNCSKFPPQNDHNHMCMEGPGD
notes: range 40-164; also called Fz4 CRD-FcH6; Fz4-FcH6 dimer; not shown: Fc tag of the pHL-IgL-FcH6 vector; His6 tag (six histidines)
- Kd [1]: ~11 nM
- Kd [2]: ~5 nM

B2: Lrp6 BP3-4 (Lrp6 extracellular beta-propeller domains 3 and 4) (receptor)
chain: VPEAFLLFSRRADIRRISLETNNNNVAIPLTGVKEASALDFDVTDNRIYWTDISLKTISRAFMNGSALEHVVEFGLDYPEGMAVDWLGKNLYWADTGTNRIEVSKLDGQHRQVLVWKDLDSPRALALDPAEGFMYWTEWGGKPKIDRAAMDGSERTTLVPNVGRANGLTIDYAKRRLYWTDLDTNLIESSNMLGLNREVIADDLPHPFGLTQYQDYIYWTDWSRRSIERANKTSGQNRTIIQGHLDYVMDILVFHSSRQSGWNECASSNGHCSHLCLAVPVGGFVCGCPAHYSLNADNRTCSAPTTFLLFSQKSAINRMVIDEQQSPDIILPIHSLRNVRAIDYDPLDKQLYWIDSRQNMIRKAQEDGSQGFTVVVSSVPSQNLEIQPYDLSIDIYSRYIYWTCEATNVINVTRLDGRSVGVVLKGEQDRPRAVVVNPEKGYMYFTNLQERSPKIERAALDGTEREVLFFSGLSKPIALALDSRLGKLFWADSDLRRIESSDLSGANRIVLEDSNILQPVGLTVFENWLYWIDKQQQMIEKIDMTGREGRTKVQARIAQLSDIHAVKELNLQEYRQHPCAQDNGGCSHICLVKGDGTTRCSCPMHLVLLQDELSCG
notes: domain: β-propeller domains 3-4 (BP3-4); not shown: His8 tag (His8 tagged Lrp6 ECD proteins)
- binding result [3]: no binding (tested: 40 µg/ml)
- binding result [4]: no binding

B3: Soluble-Rlu (enzyme)
chain: MTSKVYDPEQRKRMITGPQWWARCKQMNVLDSFINYYDSEKHAENAVIFLHGNAASSYLWRHVVPHIEPVARCIIPDLIGMGKSGKSGNGSYRLLDHYKYLTAWFELLNLPKKIIFVGHDWGACLAFHYSYEHQDKIKAIVHAESVVDVIESWDEWPDIEEDIALIKSEEGEKMVLENNFFVETMLPSKIMRKLEPEEFAAYLEPFKEKGEVRRPTLSWPREIPLVKGGKPDVVQIVRNYNAYLRASDDLPKMFIESDPGFFSNAIVEGAKKFPNTEFVKVKGLHFSQEDAPDEMGKYIKSFVERVLKNEQ
- binding result [5]: no binding
- binding result [6]: no binding

Binder: B4
- binding result [7]: binds

B5: Tspan12-Rlu (human Tspan12 with Renilla luciferase at the C-terminus) (other, UniProt O95859 1-305, looked up)
chain: MAREDSVKCLRCLLYALNLLFWLMSISVLAVSAWMRDYLNNVLTLTAETRVEEAVILTYFPVVHPVMIAVCCFLIIVGMLGYCGTVKRNLLLLAWYFGSLLVIFCVELACGVWTYEQELMVPVQWSDMVTLKARMTNYGLPRYRWLTHAWNFFQREFKCCGVVYFTDWLEMTEMDWPPDSCCVREFPGCSKQAHQEDLSDLYQEGCGKKMYSFLRGTKQLQVLRFLGISIGVTQILAMILTITLLWALYYDRREPGTDQMMSLKNDNSQHLSCPSVELLKPSLSRIFEHTSMANSFNTHFEMEEL
notes: whole, on cells; also called Rlu-tagged Tspan12; not shown: Renilla luciferase (Rlu)
- binding result [8]: binds
- binding result [9]: binds
- binding result [10]: binds

B6: His8-tagged Lrp6 BP1-2 (Lrp6 extracellular beta-propeller domains 1 and 2) (receptor, UniProt O75581 20-631, looked up)
chain: APLLLYANRRDLRLVDATNGKENATIVVGGLEDAAAVDFVFSHGLIYWSDVSEEAIKRTEFNKTESVQNVVVSGLLSPDGLACDWLGEKLYWTDSETNRIEVSNLDGSLRKVLFWQELDQPRAIALDPSSGFMYWTDWGEVPKIERAGMDGSSRFIIINSEIYWPNGLTLDYEEQKLYWADAKLNFIHKSNLDGTNRQAVVKGSLPHPFALTLFEDILYWTDWSTHSILACNKYTGEGLREIHSDIFSPMDIHAFSQQRQPNATNPCGIDNGGCSHLCLMSPVKPFYQCACPTGVKLLENGKTCKDGATELLLLARRTDLRRISLDTPDFTDIVLQLEDIRHAIAIDYDPVEGYIYWTDDEVRAIRRSFIDGSGSQFVVTAQIAHPDGIAVDWVARNLYWTDTGTDRIEVTRLNGTMRKILISEDLEEPRAIVLDPMVGYMYWTDWGEIPKIERAALDGSDRVVLVNTSLGWPNGLALDYDEGKIYWGDAKTDKIEVMNTDGTGRRVLVEDKIPHIFGFTLLGDYVYWTDWQRRSIERVHKRSAEREVIIDQLPDLMGLKATNVHRVIGSNPCAEENGGCSHLCLYRPQGLRCACPIGFELISDMKTCIVPE
notes: domain: β-propeller domains 1-2 (BP1-2); for the separate Fc constructs BP1 is 20-325 and BP2 is 325-631; also called H8-Lrp6 BP1-2; not shown: His8 tag (eight histidines)
- Kd [11]: ~450 nM
- binding result [12]: no binding (tested: 1.805 µM)

B7: CCK2R-YFP (receptor, UniProt P32239 1-447, looked up)
chain: MELLKLNRSVQGTGPGPGASLCRPGAPLLNSSSVGNLSCEPPRIRGAGTRELELAIRITLYAVIFLMSVGGNMLIIVVLGLSRRLRTVTNAFLLSLAVSDLLLAVACMPFTLLPNLMGTFIFGTVICKAVSYLMGVSVSVSTLSLVAIALERYSAICRPLQARVWQTRSHAARVIVATWLLSGLLMVPYPVYTVVQPVGPRVLQCVHRWPSARVRQTWSVLLLLLLFFIPGVVMAVAYGLISRELYLGLRFDGDSDSDSQSRVRNQGGLPGAVHQNGRCRPETGAVGEDSDGCYVQLPRSRPALELTALTAPGPGSGSRPTQAKLLAKKRVVRMLLVIVVLFFLCWLPVYSANTWRAFDGPGAHRALSGAPISFIHLLSYASACVNPLVYCFMHRRFRQACLETCARCCPRPPRARPRALPDEDPPTPSIASLSRLSYTTISTLGPG
notes: whole, on cells; Negative control of the saturation BRET; also called CCK2R-YFP, an unrelated seven-transmembrane receptor; not shown: YFP
- binding result [13]: no binding (tested: YFP/Rlu about 33 (ratio))

B8: Fz8-FcH6 (Frizzled 8 CRD, residues 28-155, fused to Fc and His6 tags) (Fc fusion)
chain: ASAKELACQEITVPLCKGIGYNYTYMPNQFNHDTQDEAGLEVHQFWPLVEIQCSPDLKFFLCSMYTPICLEDYKKPLPPCRSVCERAKAGCAPLMRQYGFAWPDRMRCDRLPEQGNPDTLCMDYNRTD
notes: range 28-155; also called Fz8 CRD; not shown: Fc tag of the pHL-IgL-FcH6 vector; His6 tag (six histidines)
- binding result [14]: no binding
- binding result [15]: no binding
